The target in this assay is nYFP-OsCaM1-1 (rice calmodulin OsCaM1-1 fused with the N-terminal fragment of YFP) (rice, UniProt Q0JNS6 1-149). The assay is described as follows: BiFC, nYFP-OsCaM1-1 and cYFP-GSE5 coexpressed in N. benthamiana leaves. From the text: The coding sequence of GSE5 were amplified by specific primers ycGSE5-F/R, fused with the C-terminal fragment of YFP (cYFP), and then subcloned into the pGWB414 vector (Invitrogen) using in-fusion enzyme (Genebank Biosciences Inc, China). The N-terminal fragment of YFP (nYFP) was amplified from pSY736 using the primers YN-736-F and YN-736-R, fused with the OsCaM1-1 gene, and then subcloned into the pGWB414 vector (Invitrogen) using in-fusion enzyme (Genebank Biosciences Inc, China). nYFP-OsCaM1-1 and cYFP-GSE5 constructs were transformed into Agrobacterium strains GV3101. Transient expression of nYFP-OsCaM1-1 and cYFP-GSE5 in Nicotiana benthamiana leaves and fluorescence observation were conducted as described previously (Wang et al., 2016).

This note sets out measurements from patent US20200255846A1 (INSTITUTE OF GENETICS AND DEVELOPMENTAL BIOLOGY CHINESE …, published 2020).

B1: cYFP-GSE5 (GSE5, GRAIN SIZE ON CHROMOSOME 5, fused with the C-terminal fragment of YFP) (other)
chain: MGKAARWFRNMWGGGRKEQKGEAPASGGKRWSFGKSSRDSAEAAAAAAAAAAEASGGNAAIARAAEAAWLRSVYADTEREQSKHAIAVAAATAAAADAAVAAAQAAVAVVRLTSKGRSAPVLAATVAGDTRSLAAAAVRIQTAFRGFLAKKALRALKALVKLQALVRGYLVRRQAAATLQSMQALVRAQATVRAHRSGAGAAANLPHLHHAPFWPRRSLQERCAGDDTRSEHGVAAYSRRLSASIESSSYGYDRSPKIVEVDTGRPKSRSSSSRRASSPLLLDAAGCASGGEDWCANSMSSPLPCYLPGGAPPPRIAVPTSRHFPDYDWCALEKARPATAQSTPRYAHAPPTPTKSVCGGGGGGGIHSSPLNCPNYMSNTQSFEAKVRSQSAPKQRPETGGAGAGGGRKRVPLSEVVVVESRASLSGVGMQRSCNRVQEAFNFKTAVVGRLDRSSESGENDRHAFLQRRW
notes: BiFC construct in pGWB414, transiently expressed inside Nicotiana benthamiana leaf cells (not on the cell surface); not shown: C-terminal fragment of YFP (cYFP)
For B1, the binding result is recorded as “binds”.
